Laboratory results reported in patent US20210238260.

Target: Factor X (FX), P00742
Sequence (P00742 whole entry, looked up): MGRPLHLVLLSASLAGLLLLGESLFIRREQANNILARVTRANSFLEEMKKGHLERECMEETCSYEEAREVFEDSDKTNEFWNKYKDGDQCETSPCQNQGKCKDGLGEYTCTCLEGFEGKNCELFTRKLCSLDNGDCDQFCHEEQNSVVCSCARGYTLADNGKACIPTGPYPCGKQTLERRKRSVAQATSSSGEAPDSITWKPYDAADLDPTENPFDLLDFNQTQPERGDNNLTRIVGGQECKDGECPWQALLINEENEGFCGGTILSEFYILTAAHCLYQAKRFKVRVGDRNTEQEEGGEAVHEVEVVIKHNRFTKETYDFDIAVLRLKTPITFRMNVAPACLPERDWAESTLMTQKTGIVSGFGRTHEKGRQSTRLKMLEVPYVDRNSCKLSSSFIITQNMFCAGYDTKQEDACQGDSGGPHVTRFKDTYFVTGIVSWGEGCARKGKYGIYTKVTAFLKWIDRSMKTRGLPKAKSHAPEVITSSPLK

Protein	% of WT kcat/KM [%]	KM [µM]	kcat (s^-1) of FX activation by FIXa variant in the Xase complex (FVIIIa, PC/PS vesicles, Ca2+), fluorogenic FXa read-out [s⁻¹]	kcat/KM for FX activation (Xase: FVIIIa, PC/PS vesicles, Ca2+) [M⁻¹ s⁻¹]
FIXa-K247N/N249S/R318Y/R338E/T343R/E410N (protein) chain 1: YNSGKLEEFVQGNLERECMEEKCSFEEAREVFENTERTTEFWKQYVDGDQCESNPCLNGGSCKDDINSYECWCPFGFEGKNCELDVTCNIKNGRCEQFCKNSADNKVVCSCTEGYRLAENQKSCEPAVPFPCGRVSVSQTSKLTR chain 2: VVGGEDAKPGQFPWQVVLNGKVDAFCGGSIVNEKWIVTAAHCVETGVKITVVAGEHNIEETEHTEQNRSVIRIIPHHNYNAAINKYNHDIALLELDEPLVLNSYVTPICIADKEYTNIFLKFGSGYVSGWGRVFHKGYSALVLQYLRVPLVDRATCLESTKFRIYNNMFCAGFHEGGRDSCQGDSGGPHVTEVEGTSFLTGIISWGEECAMKGKYGIYTKVSRYVNWIKNKTKLT	687	0.0328	8.8	3.2e+08
FIXa-Y155F/K247N/N249S/R318Y/T343R/R403E/E410N (protein) chain 1: YNSGKLEEFVQGNLERECMEEKCSFEEAREVFENTERTTEFWKQYVDGDQCESNPCLNGGSCKDDINSYECWCPFGFEGKNCELDVTCNIKNGRCEQFCKNSADNKVVCSCTEGYRLAENQKSCEPAVPFPCGRVSVSQTSKLTR chain 2: VVGGEDAKPGQFPWQVVLNGKVDAFCGGSIVNEKWIVTAAHCVETGVKITVVAGEHNIEETEHTEQNRSVIRIIPHHNYNAAINKYNHDIALLELDEPLVLNSYVTPICIADKEYTNIFLKFGSGYVSGWGRVFHKGYSALVLQYLRVPLVDRATCLRSTKFRIYNNMFCAGFHEGGRDSCQGDSGGPHVTEVEGTSFLTGIISWGEECAMKGKYGIYTKVSEYVNWIKNKTKLT	350	0.0606	9	1.6e+08
FIXa-K247N/N249S/R318Y/T343R/R403E/E410N (protein) chain 1: YNSGKLEEFVQGNLERECMEEKCSFEEAREVFENTERTTEFWKQYVDGDQCESNPCLNGGSCKDDINSYECWCPFGFEGKNCELDVTCNIKNGRCEQFCKNSADNKVVCSCTEGYRLAENQKSCEPAVPFPCGRVSVSQTSKLTR chain 2: VVGGEDAKPGQFPWQVVLNGKVDAFCGGSIVNEKWIVTAAHCVETGVKITVVAGEHNIEETEHTEQNRSVIRIIPHHNYNAAINKYNHDIALLELDEPLVLNSYVTPICIADKEYTNIFLKFGSGYVSGWGRVFHKGYSALVLQYLRVPLVDRATCLRSTKFRIYNNMFCAGFHEGGRDSCQGDSGGPHVTEVEGTSFLTGIISWGEECAMKGKYGIYTKVSEYVNWIKNKTKLT	279	0.0805	9.5	1.3e+08
FIXa-Y155F/K247N/N249S/R338E/E410N (protein) chain 1: YNSGKLEEFVQGNLERECMEEKCSFEEAREVFENTERTTEFWKQYVDGDQCESNPCLNGGSCKDDINSYECWCPFGFEGKNCELDVTCNIKNGRCEQFCKNSADNKVVCSCTEGYRLAENQKSCEPAVPFPCGRVSVSQTSKLTR chain 2: VVGGEDAKPGQFPWQVVLNGKVDAFCGGSIVNEKWIVTAAHCVETGVKITVVAGEHNIEETEHTEQNRSVIRIIPHHNYNAAINKYNHDIALLELDEPLVLNSYVTPICIADKEYTNIFLKFGSGYVSGWGRVFHKGRSALVLQYLRVPLVDRATCLESTKFTIYNNMFCAGFHEGGRDSCQGDSGGPHVTEVEGTSFLTGIISWGEECAMKGKYGIYTKVSRYVNWIKNKTKLT	1009	0.0177	7.3	4.7e+08
FIXa-Y155F/K247N/N249S/R318Y/T343R/R403E (protein) chain 1: YNSGKLEEFVQGNLERECMEEKCSFEEAREVFENTERTTEFWKQYVDGDQCESNPCLNGGSCKDDINSYECWCPFGFEGKNCELDVTCNIKNGRCEQFCKNSADNKVVCSCTEGYRLAENQKSCEPAVPFPCGRVSVSQTSKLTR chain 2: VVGGEDAKPGQFPWQVVLNGKVDAFCGGSIVNEKWIVTAAHCVETGVKITVVAGEHNIEETEHTEQNRSVIRIIPHHNYNAAINKYNHDIALLELDEPLVLNSYVTPICIADKEYTNIFLKFGSGYVSGWGRVFHKGYSALVLQYLRVPLVDRATCLRSTKFRIYNNMFCAGFHEGGRDSCQGDSGGPHVTEVEGTSFLTGIISWGEECAMKGKYGIYTKVSEYVNWIKEKTKLT	276	0.0605	7.5	1.3e+08
FIXa-K247N/N249S/R318Y/T343R/R403E (protein) chain 1: YNSGKLEEFVQGNLERECMEEKCSFEEAREVFENTERTTEFWKQYVDGDQCESNPCLNGGSCKDDINSYECWCPFGFEGKNCELDVTCNIKNGRCEQFCKNSADNKVVCSCTEGYRLAENQKSCEPAVPFPCGRVSVSQTSKLTR chain 2: VVGGEDAKPGQFPWQVVLNGKVDAFCGGSIVNEKWIVTAAHCVETGVKITVVAGEHNIEETEHTEQNRSVIRIIPHHNYNAAINKYNHDIALLELDEPLVLNSYVTPICIADKEYTNIFLKFGSGYVSGWGRVFHKGYSALVLQYLRVPLVDRATCLRSTKFRIYNNMFCAGFHEGGRDSCQGDSGGPHVTEVEGTSFLTGIISWGEECAMKGKYGIYTKVSEYVNWIKEKTKLT	84	0.105	3.7	3.9e+07
FIXa-Y155F/K247N/N249S/R318Y/T343R/E410N (protein) chain 1: YNSGKLEEFVQGNLERECMEEKCSFEEAREVFENTERTTEFWKQYVDGDQCESNPCLNGGSCKDDINSYECWCPFGFEGKNCELDVTCNIKNGRCEQFCKNSADNKVVCSCTEGYRLAENQKSCEPAVPFPCGRVSVSQTSKLTR chain 2: VVGGEDAKPGQFPWQVVLNGKVDAFCGGSIVNEKWIVTAAHCVETGVKITVVAGEHNIEETEHTEQNRSVIRIIPHHNYNAAINKYNHDIALLELDEPLVLNSYVTPICIADKEYTNIFLKFGSGYVSGWGRVFHKGYSALVLQYLRVPLVDRATCLRSTKFRIYNNMFCAGFHEGGRDSCQGDSGGPHVTEVEGTSFLTGIISWGEECAMKGKYGIYTKVSRYVNWIKNKTKLT	668	0.0381	8.1	3.1e+08
FIXa-K247N/N249S/R318Y/T343R/E410N (protein) chain 1: YNSGKLEEFVQGNLERECMEEKCSFEEAREVFENTERTTEFWKQYVDGDQCESNPCLNGGSCKDDINSYECWCPFGFEGKNCELDVTCNIKNGRCEQFCKNSADNKVVCSCTEGYRLAENQKSCEPAVPFPCGRVSVSQTSKLTR chain 2: VVGGEDAKPGQFPWQVVLNGKVDAFCGGSIVNEKWIVTAAHCVETGVKITVVAGEHNIEETEHTEQNRSVIRIIPHHNYNAAINKYNHDIALLELDEPLVLNSYVTPICIADKEYTNIFLKFGSGYVSGWGRVFHKGYSALVLQYLRVPLVDRATCLRSTKFRIYNNMFCAGFHEGGRDSCQGDSGGPHVTEVEGTSFLTGIISWGEECAMKGKYGIYTKVSRYVNWIKNKTKLT	439	0.0401	6.1	2e+08
